The source of these data is US20240018256A1 (JUNO THERAPEUTICS, published 2024).

Substitutions are numbered along the chain they refer to. Numbers in names are those of the source.

Experiment [1] has as its target T1, human CD19 (human, UniProt P15391 20-556).
T1 sequence: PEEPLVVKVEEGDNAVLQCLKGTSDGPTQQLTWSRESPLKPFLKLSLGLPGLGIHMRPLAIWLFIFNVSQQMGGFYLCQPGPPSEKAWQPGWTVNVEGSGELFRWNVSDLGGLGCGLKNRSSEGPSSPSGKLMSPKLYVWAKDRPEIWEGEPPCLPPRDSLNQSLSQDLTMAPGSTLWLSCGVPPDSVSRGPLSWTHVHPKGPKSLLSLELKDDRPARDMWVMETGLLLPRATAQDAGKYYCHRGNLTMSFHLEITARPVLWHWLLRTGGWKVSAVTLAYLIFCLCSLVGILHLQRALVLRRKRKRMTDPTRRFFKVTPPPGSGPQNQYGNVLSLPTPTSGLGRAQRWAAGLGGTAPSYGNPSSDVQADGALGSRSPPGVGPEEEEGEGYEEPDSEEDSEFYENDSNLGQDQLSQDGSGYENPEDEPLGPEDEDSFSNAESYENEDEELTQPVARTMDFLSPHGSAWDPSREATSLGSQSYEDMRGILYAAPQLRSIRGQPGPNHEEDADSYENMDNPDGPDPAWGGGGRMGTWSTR
Kind of experiment: flow cytometry on CD19-expressing cells, summary (n = 7). (Flow cytometry measures light scatter and fluorescence of single cells or particles in a stream.)

Experiment [2] has as its target T1, human CD19. Nature of the experiment: flow cytometry, scFv titrated on CD19-expressing K562 cells (FIG. 3A).
Experiment [3] has as its target T1, human CD19. Kind of experiment: flow cytometry, scFv titrated on CD19-expressing K562 cells (FIG. 3B).
Experiment [4] deals with T1, human CD19. Kind of experiment: flow cytometry competition for binding with FMC63, summary (n = 3). The procedure: (§1) Competition binding assays were performed to assess competition of various antibodies for binding to CD19-expressing cells.
Experiment [5] addresses T1, human CD19. Kind of experiment: flow cytometry, scFv titrated on CD19-expressing K562 cells (FIG. 4, one plate).
Experiment [6] has as its target T1, human CD19. Nature of the experiment: flow cytometry competition with labeled FMC63 IgG on CD19-expressing cells (FIG. 5B). The procedure:
as §1

For experiment [7], the target named is T1, human CD19. Nature of the experiment: flow cytometry, scFv titrated on CD19-expressing K562 cells (FIG. 4, another plate).
The target in experiment [8] is T1, human CD19. Kind of experiment: flow cytometry on CD19-expressing cells (n = 7). The source says: (§2) Various clones were titrated and their binding affinity (EC50) to various CD19-expressing cells assessed by flow cytometry.
Experiment [9] has as its target T1, human CD19. Kind of experiment: flow cytometry on CD19-expressing cells, summary (n = 5).
For experiment [10], the target named is T1, human CD19. Kind of experiment: flow cytometry competition for binding with FMC63 (n = 3).
The target in experiment [11] is T1, human CD19. Kind of experiment: flow cytometry competition for binding with FMC63, summary (n = 1).
Experiment [12] concerns the target T1, human CD19. Nature of the experiment: flow cytometry on CD19-expressing cells (n = 5).
For experiment [13], the target named is T1, human CD19. Nature of the experiment: flow cytometry on CD19-expressing cells, summary.
Experiment [14] concerns the target T1, human CD19. Kind of experiment: flow cytometry competition for binding with FMC63 (n = 2).
For experiment [15], the target named is T1, human CD19. Nature of the experiment: flow cytometry competition for binding with FMC63, summary (n = 2).
Experiment [16] deals with T1, human CD19. Kind of experiment: flow cytometry, HIS-tagged scFv bacterial supernatant on CD19-transfected HEK293 cells (FIG. 8C). The source says: (§3) A third scFv library was generated by shuffling the VH sequences from the selection in (a) with the VL sequences resulting from the selection in (b). […] Binding by the selected scFv clones to CD19-expressing cells was confirmed by flow cytometry using bacterially-produced supernatant. The selected scFv pools were cloned into E. coli expression vectors and produced as HIS-tagged scFvs. Binding of individual clones to CD19-transfected HEK293 cells was detected with anti-HIS-Alexa647 conjugate by flow cytometry.

For experiment [17], the target named is T1, human CD19. Nature of the experiment: flow cytometry, HIS-tagged scFv bacterial supernatant on CD19-transfected HEK293 cells (FIG. 8B).
Source text: as §3

For experiment [18], the target named is T1, human CD19. Kind of experiment: flow cytometry, in vitro-translated FLAG-tagged scFv on CD19-expressing vs mock transfected K562 cells (FIG. 8D).
In experiment [19] the target is T1, human CD19. Kind of experiment: flow cytometry, scFv titrated on CD19-expressing K562 cells (FIG. 3C).
Experiment [20] deals with T1, human CD19. Kind of experiment: flow cytometry on Ramos cells; probe concentration said to be about its EC50.
Experiment [21] concerns the target T1, human CD19. Nature of the experiment: flow cytometry on CD19-expressing cells (n = 1).
Source text: as §2

Experiment [22] concerns the target T1, human CD19. Kind of experiment: flow cytometry on CD19-expressing cells, summary (n = 1).
Experiment [23] addresses T1, human CD19. Nature of the experiment: flow cytometry competition for binding with FMC63 (n = 1).

B1: Clone 18 scFv (scFv)
scFv: EVQLVESGGGLVQPGRSLRLSCAASGFTFDDYAMHWVRQAPGKGLEWVSGISWNSGRIGYADSVKGRFTISRDNAKNSLFLQMNSLRAEDTAVYYCARDQGYHYYDSAEHAFDIWGQGTVVTVSSGGGGSGGGGSGGGGSQSALTQPRSVSGFPGQSVTISCTGTTSDDVSWYQQHPGKAPQLMLYDVSKRPSGVPHRFSGSRSGRAASLIISGLQTEDEADYFCCSYAGRYNSVLFGGGTKLTVL
notes: Human scFv, VH-(G4S)3-VL
As for B1, the concentration for a half-maximal effect (EC50) in experiment [1] came out at 4.1 nM; in experiment [2], 3.79 nM; in [3], 7.1 nM; in experiment [5], 4.79 nM; in experiment [7], 3.11 nM. For the same molecule, the IC50 in experiment [4] came out at 20.1 nM; in experiment [6], 24 nM.

B2: Clone 18B scFv (scFv)
scFv: B1 scFv with C226S
notes: Clone 18 with cysteine to serine at Kabat position 89 of VL; also called germline variant of clone 18
Take B2: the figures for the EC50 in experiment [8], in experiment [9] and in experiment [3] were 4.9 nM, 5.4 nM and 9.3 nM, respectively. Also, the IC50 in experiment [10] was determined as 32.9 nM; in experiment [11], 28 nM.

B3: Clone 17 scFv (scFv)
scFv: EVQLVESGGGLVQPGRSLRLSCAASGFTFDDYAMHWVRQAPGKGLEWVSGISWNSGRIGYADSVKGRFTISRDNAKNSLFLQMNSLRAEDTAVYYCARDQGYHYYDSAEHAFDIWGQGTMVTVSSGGGGSGGGGSGGGGSQSALTQPASVSGSPGQSITIFCTGTSSDVGGYNYVSWYQQLPGTAPKLLIYSNNQRPSGVPDRFSGSKSGTSASLAISGLRSEDEADYYCAAWDDSLSVVFGGGTKLTVL
notes: Human scFv, VH-(G4S)3-VL
Turning to B3, the concentration for a half-maximal effect (EC50) came out at 11.6 nM in experiment [12], 11.7 nM in experiment [13], 14.9 nM in experiment [2] and 8.32 nM in [5]. Besides, the half-inhibitory concentration (IC50) in experiment [14] and in experiment [15] was 35.4 nM each time.

B4: Clone 440 scFv (scFv)
scFv: QVQLVESGGGLVQPGRSLRLSCAASGFTFDDYAMHWVRQAPGKGLEWVSGISWNSGRIGYADSVKGRFTISRDNAKNSLFLQMNSLRAEDTAVYYCARDQGYHYYDSAEHAFDIWGQGTVVTVSSGGGGSGGGGSGGGGSQSALTQPASVSGSPGHSITISCTGTRSDVGGFDYVSWYQHNPGKAPKLIIYDVTKRPSGVSNRFSGAKSGITASLTISGLQAEDEADYYCTSYRPGPTFVFGTGTKLDIK
notes: HIS- or FLAG-tagged
With B4, in [16], the binding result is given as “binds”.

B5: Clone 336 scFv (scFv)
scFv: QVQLVESGGGLVQPGRSLRLSCAASGFTFDDYAMHWVRQAPGKGLEWVSGISWNSGRIGYADSVKGRFTISRDNAKNSLFLQMNSLRAEDTAVYYCARDQGYHYYDSAEHAFDIWGQGTVVTVSSGGGGSGGGGSGGGGSQSALTQPASVSGSPGQSITISCTGTSSDLGGYNYVSWYQHRPGKAPKLIIYDVTVRPSGVSDRFSGSKSGNTASLTISGLQAEDEADYYCGSYTSSSTLLWVFGGGTKLTVL
notes: HIS- or FLAG-tagged
In the case of B5, in [17], the binding result was “binds”.

B6: Clone 448 scFv (scFv)
scFv: B5 scFv with T250D, V251I, L252K
notes: HIS- or FLAG-tagged
As for B6, in [16], the binding result is recorded as “binds”.

B7: Clone 213 scFv (scFv)
scFv: QVQLVQSGGGVVQPGRSLRLSCAASGFTFDDYAMHWVRQAPGKGLEWVSGISWNSGSIGYADSVKGRFTISRDNAKNSLYLQMNSLRAEDTAVYYCARDQGYHYYDSAEHAFDIWGQGTVVTVSSGGGGSGGGGSGGGGSEIVLTQSPATLSLSPGETATLSCRASQSINHYLAWYQQKPGQAPRLLIYDASNRATGIPARFSGSGSGTDFTLTISSLEPEDFATYYCQQSYSHPRMYTFGQGTKLEIK
B7: in experiment [18], the binding result is “binds”.

B8: Clone 76 scFv (scFv)
scFv: EVQLVESGGGLVQPGRSLRLSCAASGFTFDDYAMHWVRQAPGKGLEWVSGISWNSGRIGYADSVKGRFTISRDNAKNSLFLQMNSLRAEDTAVYYCARDQGYHYYDSAEHAFDIWGQGTVVTVSSGGGGSGGGGSGGGGSQSVLTQPPSVSAAPGQEVTISCSGSSSNIGNNYVSWYQQLPGTAPKLLIYDNDKRPSGIPDRFSGSKSGTSATLGITGLQTGDEADYYCGTWDGNLSAVFGGGTKVTVL
notes: Human scFv, VH-(G4S)3-VL
Take B8: the EC50 in experiment [12] turned out to be 7 nM; in experiment [13], 8.04 nM; in [3] it was 7.9 nM; in experiment [19], 8.8 nM. For the same molecule, the IC50 in [14] and in experiment [15] was 18.2 nM throughout.

B9: SJ25C1 IgG1 (antibody, V domains shown)
VH: EVKLQQSGAELVRPGSSVKISCKASGYAFSSYWMNWVKQRPGQGLEWIGQIYPGDGDTNYNGKFKGQATLTADKSSSTAYMQLSGLTSEDSAVYFCARKTISSVVDFYFDYWGQGTTVTVSS
VL: DIELTQSPKFMSTSVGDRVSVTCKASQNVGTNVAWYQQKPGQSPKPLIYSATYRNSGVPDRFTGSGSGTDFTLTITNVQSKDLADYFCQQYNRYPYTSGGGTKLEI
notes: Murine IgG1, FITC-labeled in the assay; also called FITC-labeled SJ25C1
As to B9, the EC50 in [20] was about 0.5 nM.

B10: Clone 5 scFv (scFv)
scFv: EVQLVESGGGLVQPGRSLRLSCAASGFTFDDYAMHWVRQAPGKGLEWVSGISWNSGRIGYADSVKGRFTISRDNAKNSLFLQMNSLRAEDTAVYYCARDQGYHYYDSAEHAFDIWGQGTMVTVSSGGGGSGGGGSGGGGSSYELTQDPAVSVALGQTVRITCQGDSLRSYYASWYQQKPGQAPVLVIYDKNNRPSGIPDRFSGSSSGNTASLTITGAQAEDEADYYCNSRDSSGNNWVFGGGTKLTVL
notes: Human scFv, VH-(G4S)3-VL
As for B10, the EC50 in experiment [21], in experiment [22] and in experiment [5] was 15.8 nM throughout. Besides, the IC50 in experiment [23] and in [11] was 50 nM throughout.

As usually defined, the EC50 is the midpoint of the concentration-response curve. Lower therefore signals greater potency. As a reminder, the IC50 is the midpoint of a concentration-inhibition curve. The low end stands for greater potency, the high end for weaker potency.
